For four molecules, Kd and n H results are on record in paper PMC3724859 (2013).

No end group written: not given here.

Series [1] addresses EINsc H186D EIN (Streptomyces coelicolor) (UniProt Q9KZP1). As to conditions: cited from earlier work.
Series [2] deals with EINsite peptides (Streptomyces coelicolor) (UniProt Q9KZP1). As to conditions: cited from earlier work.
For series [3], the target named is EINosite peptide (HPr-contacting region of EIN^sc) (UniProt Q9KZP1). The series is described as follows: ITC (Auto-ITC200) in two buffers of different ionisation enthalpy. As to conditions: pH 7.0; 25 C; no added salt stated; 10 mM Mes (pH 7.0) and 10 mM Mops (pH 7.0); delta H ion 3.55 and 5.05 kcal/mol.
Series [4] concerns the target N-terminal domain of enzyme I, wild type (EIN^sc) (UniProt Q9KZP1). The description is as above. The conditions noted are these: pH 7.0; 25 C; no added salt stated; 10 mM Mes (pH 7.0) and 10 mM Mops (pH 7.0); delta H ion 3.55 and 5.05 kcal/mol.
In series [5] the target is N-terminal domain of enzyme I, phosphomimetic mutant EINH186D H186D (UniProt Q9KZP1). The description is as above. As to conditions: pH 7.0; 25 C; no added salt stated; 10 mM Mes (pH 7.0) and 10 mM Mops (pH 7.0); delta H ion 3.55 and 5.05 kcal/mol.
The target in series [6] is EINbsite peptide (active-site region of EIN^sc) (UniProt Q9KZP1). The description is as above. The conditions noted are these: pH 7.0; 25 C; no added salt stated; 10 mM Mes (pH 7.0) and 10 mM Mops (pH 7.0); delta H ion 3.55 and 5.05 kcal/mol.
Series [7] has as its target Histidine phosphocarrier protein HPr (HPr^sc). The series is described as follows: not stated here (value quoted from ref. [19]; presumably ITC in several buffers). The conditions noted are these: pH not stated; cited from earlier work.
The next series has as its target T1, EINbsite peptide (Streptomyces coelicolor).
T1 chain: FVTEEGGPTSHSAILARA-NH2
The series is described as follows: ITC.

The next series deals with T2, EINosite peptide (Streptomyces coelicolor, C-terminal amidation).
T2 chain: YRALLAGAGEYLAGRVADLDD
The series can be described thus: ITC.

Series [8] has as its target T3, EINH186D (enzyme I N-terminal domain) N-terminal domain (Streptomyces coelicolor, UniProt Q9KZP1).
T3 chain: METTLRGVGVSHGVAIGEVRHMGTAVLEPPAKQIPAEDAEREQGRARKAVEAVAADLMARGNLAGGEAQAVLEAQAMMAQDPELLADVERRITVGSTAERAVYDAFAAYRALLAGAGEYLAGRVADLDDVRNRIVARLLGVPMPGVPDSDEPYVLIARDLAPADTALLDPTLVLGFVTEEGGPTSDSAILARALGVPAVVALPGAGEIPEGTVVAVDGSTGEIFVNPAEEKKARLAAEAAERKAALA
The series is described as follows: ITC.

Series [9] deals with T4, EINsc (enzyme I N-terminal domain) N-terminal domain (Streptomyces coelicolor, UniProt Q9KZP1).
T4 chain: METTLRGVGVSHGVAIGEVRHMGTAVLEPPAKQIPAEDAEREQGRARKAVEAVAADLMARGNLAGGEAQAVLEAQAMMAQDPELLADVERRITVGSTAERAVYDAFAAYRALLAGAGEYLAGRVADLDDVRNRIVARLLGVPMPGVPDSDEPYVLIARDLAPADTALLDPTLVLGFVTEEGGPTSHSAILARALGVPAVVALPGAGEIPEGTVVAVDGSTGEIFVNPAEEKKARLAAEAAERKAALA
The series can be described thus: ITC.

Series [10] deals with T5, EINbsite + EINosite equimolar peptide mixture (Streptomyces coelicolor, UniProt Q9KZP1, C-terminal amidation, equimolar mixture of both peptides).
T5 chain 1: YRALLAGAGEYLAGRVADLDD
T5 chain 2: FVTEEGGPTSHSAILARA
The series is described as follows: ITC.

The series “ITC dilution” concerns the molecule itself. The series is described as follows: ITC dilution.

Consider HPrsc (from UniProt O50515), for which the Kd in series [1] is 10 µM; in series [2], 16 µM.
Regarding “Histidine phosphocarrier protein HPr (HPr^bs)”, the n H in [3] was 0.28 protons; in series [4], 0.17 protons; in series [5], -0.31 protons; in series [6] it was -0.31 protons.
With “N-terminal domain of enzyme I, wild type (EIN^sc)”, the n H in series [7] is 0.52 protons.

B1: HPrbs (histidine phosphocarrier protein) (protein)
chain: MKTQQFTVIDPLGIHARPASQLVAKATPFASAIEVRTEEKAANLKSILGVMGLALKQGSQFTLYVEGEDEDQAFEALATLLTEMGLAQ
With B1, the dissociation constant Kd with EINbsite peptide came to 3.9 µM; with EINosite peptide, 3000 nM; in series [8], 2900 nM; in series [9] it was 1900 nM; in [10] it was 4.8 µM; in the series “ITC dilution” it was 6.5 µM.
